Molecular target: T1, mouse IFNα4 without tag (Mus musculus, UniProt P07351)
T1 construct: Expressed with an N-terminal mouse IgG signal peptide (HVM06_MOUSE) and a C-terminal TEV site before the tags; Produced in a glycosylation deficient cell line; also called Interferon α; not shown: Twin-Strep-tag, C-terminal, cleaved; His8, C-terminal, cleaved
Assay: BLI; Octet Red96; αIFNα-ab covalently coupled (EDC/NHS) to Ni-NTA tips, increasing concentrations of IFNα4 in solution; kinetic buffer 0.2% BSA in PBS with 0.05% Tween 20; association 800 s, dissociation 1800 s; 1:1 interaction model
Settings: both partners purified

T1 sequence (P07351 25-186): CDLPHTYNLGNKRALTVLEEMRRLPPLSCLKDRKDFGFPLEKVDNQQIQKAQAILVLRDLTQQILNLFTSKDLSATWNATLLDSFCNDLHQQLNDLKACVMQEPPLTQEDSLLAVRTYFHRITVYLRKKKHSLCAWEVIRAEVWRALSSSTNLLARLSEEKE

- Kd: 38.6 nM
- koff: 0.00023 s⁻¹
- kon: 5970 M⁻¹ s⁻¹
B1: soluble scFv αIFNα-ab (scFv, V domains shown)
VH: EVQLVESGGGLVRPGGSLKLSCTASGFTFSDFDMAWVRQAPTRGLEWVASISSGPANTHYRGSVRGRFTGSRNDAKSTLYLQMDSLRSEDTATYYCARPFGSGYYFDYWGQGVVVTVSS
VL: DTVLTQSPALAVSLGQRVTISCKASESVSSSTSNYMHWYQQKPGQRPKLLIYLASNLESGVPARFSGSGSGTDFILNIDPVEADDVATYFCQQSWNDPPTFGSGTKVELK
notes: VH of the rat anti-mouse IFNα hybridoma antibody 4EA1; linker, printed as (GGGGS)3; VL (kappa) of the rat anti-mouse IFNα hybridoma antibody 4EA1; Order VH-(GGGGS)3-VL; made with a signal peptide (secreted); also called anti-IFNα scFv; soluble form of the intrabody; not shown: His6, C-terminal, kept
